Source: paper PMC3665746

These substances were tested against palm-Mover-flag (not stated | rat) (assay: plasma membrane recruitment assay in cells (immunofluorescence, line scans); Vero cells co-transfected with palm-Mover-flag and a myc- or GFP-tagged Mover construct; fixed after 24 h, stained against the tags; a cell is positive for recruitment when the fluorescence profiles co-peak in the cell periphery).

Substance | percent of cells showing recruitment (percent of cells)
Mover-myc (natural protein) | 94
Mover-GFP (natural protein) | 61
GFP-Mover (natural protein) | 94

Other lines, results leading:

percent of cells showing recruitment (percent of cells) | Substance
86 | GFP-Mover 52–266 (domain or fragment)
71 | GFP-Mover 34–266 (domain or fragment)
